Target: GPdM (EBOV, UniProt Q05320 33-632)
Assay: ELISA on coated truncated GP, method as example 2

B1: 单克隆抗体8F9 (antibody, V domains shown)
VH: EVQLLESGGGLVQPGGSLRLSCAASEFTFSNYAMNWVRQAPGKGLEWVSGISTRGSSTYYADSVKGRFTISRDNSKNTLYLQMNSLRVEDTAVYYCAKDRLSVFGVVLISSDYYGMDVWGQGTTVTVSS
VL: AIRMTQSPFSLSASVGDRVTITCRASRTISSYLNWYQKKPGKAPKLLIYAASSLQSGVPSRFSGSGSGTDFTLTISSLQPEDFATYYCQQSYSTPMTFGQGTRLEIKT
- EC50: 6.2 ng/mL

Source: patent CN111138531A (INST MILITARY MEDICINE ACADEMY MILITARY SCIENCES PLA, dated 2020)
